Values joined by “and” are separate entries in the source; they are usually repeats but may differ in a detail not shown here. Identical values can stand only once.
B1: stefin A protein variant clone 268 (designed binder)
chain: MIPGGLSEAKPATPEIQEIVDKVKPQLEEKTGETYGKLEAVQYKTQVVGDSYWEYVSGTNYYIKVRAGDNKYMHLKVFKSLPYRWRPDHAEDLVLTGYQVDKNKDDELTGF
B2: XT75 anti-CD40L stefin A protein variant secreted by gene-introduced MSC (eMSC) (designed binder)
chain: IPGGLSEAKPATPEIQEIVDKVKPQLEEKTGETYGKLEAVQYKTQVVHYYVHYNDQGTNYYIKVRAGDNKYMHLKVFKSLWGENLFAKWEDLVLTGYQVDKNKDDELTGFAEAAAKEAAAKEAAAKEAAAKEAAAKEAAAKMIPGGLSEAKPATPEIQEIVDKVKPQLEEKTGETYGKLEAVQYKTQVVHYYVHYNDQGTNYYIKVRAGDNKYMHLKVFKSLWGENLFAKWEDLVLTGYQVDKNKDDELTGFAEAAAKEAAAKEAAAKEAAAKEAAAKEAAAKMIPGGLSEAKPATPEIQEIVDKVKPQLEEKTGETYGKLEAVQYKTQVVHYYVHYNDQGTNYYIKVRAGDNKYMHLKVFKSLWGENLFAKWEDLVLTGYQVDKNKDDELTGFAEAAAKEAAAKEAAAKEAAAKEAAAKEAAAKMIPRGLSEAKPATPEIQEIVDKVKPQLEEKTGETYGKLEAVQYKTQVLANFFQRRWPGSTNYYIKVRAGDNKYMHLKVFNGPWKFRNTDRGADRVLTGYQVDKNKDDELTGF
notes: also called eMSC (XT75, w/EF1A); eMSC (XT75, w/CBh)
B3: clone-230 XT75 (trimer with a rigid linker and an HSA binding stefin A protein variant) (designed binder)
chain: B2 chain
notes: also called AFX01-230 XT75
B4: clone-230 XT76 (tetramer with a rigid linker and an HSA binding stefin A protein variant) (designed binder)
chain: IPGGLSEAKPATPEIQEIVDKVKPQLEEKTGETYGKLEAVQYKTQVVHYYVHYNDQGTNYYIKVRAGDNKYMHLKVFKSLWGENLFAKWEDLVLTGYQVDKNKDDELTGFAEAAAKEAAAKEAAAKEAAAKEAAAKEAAAKMIPGGLSEAKPATPEIQEIVDKVKPQLEEKTGETYGKLEAVQYKTQVVHYYVHYNDQGTNYYIKVRAGDNKYMHLKVFKSLWGENLFAKWEDLVLTGYQVDKNKDDELTGFAEAAAKEAAAKEAAAKEAAAKEAAAKEAAAKMIPGGLSEAKPATPEIQEIVDKVKPQLEEKTGETYGKLEAVQYKTQVVHYYVHYNDQGTNYYIKVRAGDNKYMHLKVFKSLWGENLFAKWEDLVLTGYQVDKNKDDELTGFAEAAAKEAAAKEAAAKEAAAKEAAAKEAAAKMIPGGLSEAKPATPEIQEIVDKVKPQLEEKTGETYGKLEAVQYKTQVVHYYVHYNDQGTNYYIKVRAGDNKYMHLKVFKSLWGENLFAKWEDLVLTGYQVDKNKDDELTGFAEAAAKEAAAKEAAAKEAAAKEAAAKEAAAKMIPRGLSEAKPATPEIQEIVDKVKPQLEEKTGETYGKLEAVQYKTQVLANFFQRRWPGSTNYYIKVRAGDNKYMHLKVFNGPWKFRNTDRGADRVLTGYQVDKNKDDELTGF

Assays:
[1] = target: T1, human CD40L expressed on HEK293 cells (human, UniProt P29965 1-261); assay: flow cytometry, clone at 1 uM on hCD40L-HEK293 cells (hatched), HEK-293 negative cells as control (open), detection anti-Cystatin A + A488 anti-goat
T1 construct: whole, on cells; also called hCD40L-HEK293 cells; hCD40L-HEK-293 cells (Crown Biosciences, C2041)
T1 sequence (looked up): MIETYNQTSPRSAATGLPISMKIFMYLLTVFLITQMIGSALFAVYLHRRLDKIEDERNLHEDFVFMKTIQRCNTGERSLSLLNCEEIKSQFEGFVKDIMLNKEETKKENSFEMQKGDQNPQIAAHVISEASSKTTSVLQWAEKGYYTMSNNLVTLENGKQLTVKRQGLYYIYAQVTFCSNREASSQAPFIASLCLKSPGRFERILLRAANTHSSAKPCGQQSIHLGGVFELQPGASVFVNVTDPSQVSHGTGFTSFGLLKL
Protocol: The cells were resuspended in PBS and 200,000 cells per well were dispatched in a round bottom 96 well plate. Cells were washed with PBS. The stefin A protein variant and controls were diluted in staining buffer containing 1% BSA, 0.01% Sodium Azide (NaN3), 2 mM EDTA in DPBS in duplicate and added on cells for staining for approximately 60 min at 4±1° c. Cells were washed and the secondary anti-Cystatin A (R&D, AF1407) was diluted 0.2 mg/ml in staining buffer and added on cells for staining for approximately 45 min at 4±1° c. Cells were washed again and the detection antibody A488 anti-goat (ThermoFisher, A21467) was diluted 1:500 in staining buffer and added to the cells for staining (approximately 30 min at 4±1° C.). Finally, the cells were washed and live and dead cells were stained using L/D stain Zombie Yellow (Biolegend, 423103) diluted in staining buffer for 10 min at 4±1° C. Cells were washed again and fixation buffer (R&D) was added to each well for 10 min at 4±1° C. then PBS with EDTA (Lonza) was added prior reading the plate on the flow cytometer (Guava 12 HT, Millipore). Dead cells were excluded, and the fluorescent green channel (488 nm/525/30) was acquired. Results were analyzed using Incyte and data were plotted using GraphPad.

[2] = target: T2, human CD40L (human, UniProt P29965 113-261, limits assumed); assay: direct binding ELISA on plate-coated hCD40L (5 ug/ml), detection biotinylated anti-cystatin A antibody + polyHRP-streptavidin, OD 450-630 nm; the table prints 268, the curve legend prints Clone -288 in its place
T2 construct: also called hCD40L; huCD40L
T2 sequence (looked up): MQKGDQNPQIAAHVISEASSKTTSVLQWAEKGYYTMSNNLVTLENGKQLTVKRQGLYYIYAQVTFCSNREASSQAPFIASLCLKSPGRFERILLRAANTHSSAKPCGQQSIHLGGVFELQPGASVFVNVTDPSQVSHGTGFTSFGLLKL
Protocol: Plates were washed 2 times with 150 μl of washing buffer (PBS, Tween 20 0.1%) with a plate washer and saturated with Casein 5% (Sigma) in PBS for 90 minutes at room temperature (25±1° C.). For binding, each DAW01 clone and rhCD40 Fc were added to the plate, starting from 1 μM, 1 in 3 and 300 nM, 1 in 3 respectively. Plates were washed 3 times as described previously. […] Then, cystatin A biotinylated polyclonal antibody (BAF1407) was diluted to a concentration of 0.05 μg/ml in dilution buffer (PBS, 1% casein, 0.01% Tween 20) and the plate was incubated for 90 minutes at room temperature (25±1° C.). PolyHRP-streptavidin was then diluted in dilution buffer and the plates were incubated for 90 minutes at room temperature (25±1° C.). The plates were then washed 3 times as described previously, and the substrate (TMB, Pierce Thermo-Scientific) was added to the plates for 10 minutes. The reaction was stopped using an acidic solution, and plates were read at 450-630 nm.

[3] = target: T3, human Mega CD40L recombinant protein (Enzo Lifesciences) (human, UniProt P29965 116-261); assay: cell-based or functional assay
T3 sequence (looked up): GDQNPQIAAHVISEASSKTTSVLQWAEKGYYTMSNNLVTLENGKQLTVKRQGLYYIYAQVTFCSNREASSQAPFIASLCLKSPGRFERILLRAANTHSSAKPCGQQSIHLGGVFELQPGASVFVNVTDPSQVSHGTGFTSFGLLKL

[4] = target: T4, recombinant human CD40L (R&D Systems, 6420-CL-025/CF) (human, UniProt P29965 108-261, limits assumed); assay: binding ELISA, plate-coated recombinant human CD40L, concentrated culture fluid; second-named of the two gene-introduced cell lines (two promoters); promoter not told
T4 sequence (looked up): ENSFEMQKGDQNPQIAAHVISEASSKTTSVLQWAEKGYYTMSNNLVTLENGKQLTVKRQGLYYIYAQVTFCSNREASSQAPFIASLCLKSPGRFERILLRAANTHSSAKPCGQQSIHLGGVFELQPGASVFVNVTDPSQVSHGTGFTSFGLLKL
Protocol: (§1) Each cell line was inoculated into a T175 flask at a cell density of 4.0×10³ cells/cm² using a culture medium. After culture at 37° C. and 5% CO₂ for 18 to 24 hours, the culture medium was thoroughly replaced with a fresh culture medium every 2 days, followed by culture. After culture for 3 days, the cells were harvested, and 7.0×10⁶ cells were inoculated into a T175 flask, followed by culture at 37° C. and 5% CO₂ for 18 to 24 hours. The culture medium was thoroughly removed, and the remaining medium was completely removed through washing with 10 mL of MEM alpha. 30 mL of an MEM alpha medium was added to a T175 flask, followed by culture for 48 hours. After 48 hours, all of the cell culture fluid was harvested and then centrifuged to remove residual cells and impurities. The cell culture fluid was transferred to a Vivaspin 20 and centrifuged, the culture fluid was concentrated, and the stefin A protein variant was quantified through sandwich ELISA (LSBio, LS-F4620). […] The unbound stefin A protein variant was removed through washing, after which the extent of binding between the stefin A protein variant and CD40L was detected based on a difference in absorbance resulting from reaction with a TMB substrate.

[5] = target: T3, human Mega CD40L recombinant protein …; assay: cell-based or functional assay; remark: listed apart in the source
[6] = target: T4, recombinant human CD40L (R&D Systems, …); assay: binding ELISA, plate-coated recombinant human CD40L, concentrated culture fluid; first-named of the two gene-introduced cell lines (two promoters); promoter not told
Protocol: as §1

[7] = target: T2, human CD40L; assay: bridging ELISA: capture on plate-coated hCD40L, HSA 10 uM, detection with anti-HSA antibody, OD 450-630 nm
Protocol: (§2) After saturation with 5% casein/PBS buffer, the plates were washed and a dilution of Stefin A protein variant or controls was incubated with HSA at a final concentration of 10 μM for 90 minutes. Plates were then washed, and a […], anti-HSA (HRP-conjugated) (Abcam), was added for 90 minutes. After a last washing step, TMB was added for the development of the experiment and the plates were read at 450 nm. The EC50 was then calculated using the interpolated non-linear four-parameters standard curve (FIG. 12C).

[8] = target: T2, human CD40L; assay: cell-based or functional assay
[9] = target: T2, human CD40L; assay: ELISA on plate-coated hCD40L, no HSA, detection with anti-cystatin antibody, OD 450-630 nm
Protocol: After a last washing step, TMB was added for the development of the experiment and the plates were read at 450 nm. The EC50 was then calculated using the interpolated non-linear four-parameters standard curve (FIG. 12C).

[10] = target: T2, human CD40L; assay: ELISA on plate-coated hCD40L in the presence of HSA (10 uM), detection with anti-cystatin antibody, OD 450-630 nm
[11] = target: T2, human CD40L; assay: competitive ELISA: hCD40L (1 nM) premixed with the binder and added to plate-coated rhCD40 Fc; bound hCD40L detected with biotinylated anti-hCD40L polyclonal antibody
Protocol: To evaluate the avidity of the different formats, a CD40L competitive ELISA was performed. Briefly, the plates were coated with rhCD40 Fc at 1 μg/ml and incubated overnight at 4° C. The plates were washed twice with 150 μl of washing buffer (PBS, Tween 20 0.1%) with a plate washer and saturated with Casein 5% (Sigma) in PBS for 90 minutes at room temperature (25±1° C.). […] The resulting solution was then mixed and added to the plates. The plates were washed 3 times as described previously. […] The plates were incubated for 90 minutes at room temperature (25±1° C.). The plates were then washed. PolyHRP-Streptavidin was then diluted in dilution buffer and added to the plates. The plates were incubated an additional 90 minutes at room temperature (25±1° C.). Plates were washed 3 times as described previously and the substrate (TMB, Pierce Thermo-Scientific) was added in the plate for 10 minutes. The reaction was stopped using an acidic solution and the plates were read at 450-630 nm and the resulting percent inhibition was calculated.

[12] = target: T5, human serum albumin (human, UniProt P02768 25-609); assay: bridging ELISA: binder captured on plate-coated hCD40L, HSA 10 uM, bound HSA detected with anti-HSA antibody
T5 construct: also called HSA
Protocol: as §2

T5 sequence (P02768 25-609): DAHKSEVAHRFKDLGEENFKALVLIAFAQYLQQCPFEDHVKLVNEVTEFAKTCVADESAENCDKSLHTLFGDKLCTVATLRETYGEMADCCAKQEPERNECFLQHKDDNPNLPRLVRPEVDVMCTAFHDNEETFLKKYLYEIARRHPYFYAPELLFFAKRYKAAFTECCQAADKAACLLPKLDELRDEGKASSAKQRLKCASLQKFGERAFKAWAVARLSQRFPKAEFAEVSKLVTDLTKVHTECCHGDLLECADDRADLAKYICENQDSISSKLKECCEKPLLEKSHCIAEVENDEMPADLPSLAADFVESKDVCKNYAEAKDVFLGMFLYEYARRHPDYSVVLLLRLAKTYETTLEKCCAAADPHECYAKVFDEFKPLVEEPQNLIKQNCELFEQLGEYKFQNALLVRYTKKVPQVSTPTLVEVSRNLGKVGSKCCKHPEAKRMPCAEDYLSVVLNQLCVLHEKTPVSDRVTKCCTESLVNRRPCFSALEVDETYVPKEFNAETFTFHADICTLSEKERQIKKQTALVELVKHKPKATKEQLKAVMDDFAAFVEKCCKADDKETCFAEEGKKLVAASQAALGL

Row | Binder | EC50 [7] [nM] | IC50 (read off the curve) [8] [nM] | EC50 [9] [nM] | EC50 [10] [nM] | IC50 (read off the curve) [11] [nM] | also measured
1 | B1 | – | – | – | – | – | % Positive [1]: 95.7%; MFI [1]: 7780 MFI; EC50 [2]: 31.2 nM
2 | B2 | – | – | – | – | – | IC50 (read off the curve) [3]: ~0.3 nM and ~0.4 nM; EC50 [4]: 0.0053 nM; IC50, HEK-Blue CD40L cell assay [5]: 0.303 nM and 0.4 nM; EC50 [6]: 0.0039 nM
3 | B3 | 0.41 | ~8 | 0.02 | 0.04 | ~4 | binding result [12]: binds
4 | B4 | 0.8 | ~2 | 0.07 | 0.1 | ~3 | –

Source: patent US20260022160A1 (AFFYXELL THERAPEUTICS, published 2026)
